From article PMC2726290, “Decoding of Methylated Histone H3 Tail by the Pygo-BCL9 Wnt Signaling Complex” (Molecular Cell, 2008)

T1: hPHD-HD1 complex (hPygo1 PHD 333-402 with hBCL9 HD1) (human, UniProt Q9Y3Y4 333-402; O00512 177-205)
T1 construct: PHD finger of human Pygo1, amino acids 333-402; also called binary complex; human PHD-HD1 complex; source: E. coli BL21-CodonPlus(DE3)-RIL, coexpressed from a bicistronic vector, purified as a complex; not shown: GST, N-terminal, cleaved; MBP, N-terminal, cleaved
T1 sequence (looked up) 1: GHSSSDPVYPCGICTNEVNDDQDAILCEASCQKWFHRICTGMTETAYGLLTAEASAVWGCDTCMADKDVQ
T1 sequence (looked up) 2: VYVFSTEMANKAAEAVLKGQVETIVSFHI

T2: hPygo1 PHD finger E349A (human, UniProt Q9Y3Y4 333-402, E349A)
T2 construct: PHD finger of human Pygo1 with E349A; source: E. coli, purified; not shown: GST, N-terminal, cleaved
T2 sequence (looked up): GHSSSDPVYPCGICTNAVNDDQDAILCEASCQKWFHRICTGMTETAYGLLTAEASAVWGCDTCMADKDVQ


Legend:
[1] = target: T1, hPHD-HD1 complex (hPygo1 PHD 333-402 …); experiment: ITC; protein dialysed into 100 mM NaCl, 25 mM Tris-HCl (pH 8.0), 10 uM ZnCl2, 2 mM beta-mercaptoethanol; histone peptides with free PHD or PHD-HD1 complex; one-site model; conditions: both partners purified
hPygo1 PHD finger E349A = target: T2, hPygo1 PHD finger E349A; experiment: as above; conditions: both partners purified

| Binder | Kd [1] | Kd (hPygo1 PHD finger E349A) |
| --- | --- | --- |
| ARTKQTARKSTGGKAPRK (peptide, UniProt P68431 2-19, looked up, asymmetric dimethyl-arginine at R2 (R2me2a); dimethyl-lysine at K4, histone H3 tail, 18-mer; Only the first seven residues are modelled in the structure; also called 18-mer histone H3 tail carrying both K4me2 and asymmetrically methylated R2 (R2me2a)) [H3R2me2aK4me2 18-mer histone H3 tail peptide] | 2.1 µM | – |
| ARTKQTARKSTGGKA (peptide, UniProt P68431 2-16, looked up, trimethyl-lysine at K4, histone H3 tail, 15-mer) [H3K4me3 15-mer histone H3 tail peptide] | – | 22 µM |
| ARTKQTARK (peptide, UniProt P68431 2-10, looked up, dimethyl-lysine at K4, histone H3 tail, 9-mer; the limits follow from the truncated form 'spanning R2-K9 (without A1)'; Only the first seven residues are modelled in the structure; also called 9-mer H3K4me2 peptide) [H3K4me2 9-mer histone H3 tail peptide] | 11 µM | – |
